Holding throughout (test): BLI; kinetics: FGFRs-Fc (25 μg/mL) immobilised on Protein-A sensors, galectins 0.2-6 μM; heterogeneous ligand (2:1) model
Common to all, as to conditions: both partners purified

Experiment [1] deals with T1, extracellular region of FGFR1 fused to the Fc fragment of human IgG1 (human, UniProt P11362 22-376, N-glycosylated (eight N-glycosylation sites)).
T1 construct: FGFR1, extracellular region with domains D1, D2 and D3; also called FGFR1-Fc; FGFR1.Fc; source: CHO cells, purified (Protein A Sepharose)
T1 sequence (looked up): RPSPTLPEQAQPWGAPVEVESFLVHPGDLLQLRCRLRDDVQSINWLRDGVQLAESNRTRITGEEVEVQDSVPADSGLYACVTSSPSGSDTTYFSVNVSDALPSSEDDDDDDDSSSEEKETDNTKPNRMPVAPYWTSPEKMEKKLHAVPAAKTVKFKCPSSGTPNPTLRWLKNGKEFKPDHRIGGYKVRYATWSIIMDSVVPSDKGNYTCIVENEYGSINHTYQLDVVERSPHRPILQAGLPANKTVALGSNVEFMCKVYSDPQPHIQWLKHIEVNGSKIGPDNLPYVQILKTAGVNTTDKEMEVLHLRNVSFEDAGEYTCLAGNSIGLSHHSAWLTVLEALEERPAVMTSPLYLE

Experiment [2] deals with T2, extracellular region of FGFR4 fused to the Fc fragment of human IgG1 (human, UniProt P22455 22-369, N-glycosylated (five putative N-glycosylation sites)).
T2 construct: FGFR4, extracellular region; also called FGFR4-Fc; source: CHO cells, purified (Protein A Sepharose)
T2 sequence (looked up): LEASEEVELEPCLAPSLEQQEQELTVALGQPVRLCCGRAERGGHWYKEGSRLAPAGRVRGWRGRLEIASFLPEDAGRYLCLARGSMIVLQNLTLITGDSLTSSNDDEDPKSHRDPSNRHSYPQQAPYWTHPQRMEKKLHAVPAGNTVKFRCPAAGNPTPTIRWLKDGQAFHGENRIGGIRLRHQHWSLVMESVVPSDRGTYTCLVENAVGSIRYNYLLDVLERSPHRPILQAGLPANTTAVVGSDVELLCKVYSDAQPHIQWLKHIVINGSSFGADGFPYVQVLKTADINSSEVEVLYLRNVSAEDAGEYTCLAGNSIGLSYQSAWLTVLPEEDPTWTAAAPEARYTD

Experiment [3] concerns the target T3, extracellular region of FGFR3 fused to the Fc fragment of human IgG1 (human, UniProt P22607 23-375, N-glycosylated (six putative N-glycosylation sites)).
T3 construct: FGFR3, extracellular region; also called FGFR3-Fc; source: CHO cells, purified (Protein A Sepharose)
T3 sequence (looked up): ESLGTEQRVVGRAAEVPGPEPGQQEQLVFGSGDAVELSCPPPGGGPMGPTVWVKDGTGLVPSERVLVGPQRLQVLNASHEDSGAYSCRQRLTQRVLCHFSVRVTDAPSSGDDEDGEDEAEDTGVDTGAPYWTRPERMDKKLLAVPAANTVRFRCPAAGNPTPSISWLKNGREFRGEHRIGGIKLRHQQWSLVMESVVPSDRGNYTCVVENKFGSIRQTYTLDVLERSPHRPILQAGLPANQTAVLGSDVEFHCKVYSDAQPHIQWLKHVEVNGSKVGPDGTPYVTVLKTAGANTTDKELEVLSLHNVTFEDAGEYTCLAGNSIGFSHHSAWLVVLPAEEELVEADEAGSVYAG

Experiment [4] addresses T4, extracellular region of FGFR2 fused to the Fc fragment of human IgG1 (human, UniProt P21802 22-377, N-glycosylated (eight putative N-glycosylation sites)).
T4 construct: FGFR2, extracellular region; also called FGFR2-Fc; source: CHO cells, purified (Protein A Sepharose)

T4 sequence (P21802 22-377): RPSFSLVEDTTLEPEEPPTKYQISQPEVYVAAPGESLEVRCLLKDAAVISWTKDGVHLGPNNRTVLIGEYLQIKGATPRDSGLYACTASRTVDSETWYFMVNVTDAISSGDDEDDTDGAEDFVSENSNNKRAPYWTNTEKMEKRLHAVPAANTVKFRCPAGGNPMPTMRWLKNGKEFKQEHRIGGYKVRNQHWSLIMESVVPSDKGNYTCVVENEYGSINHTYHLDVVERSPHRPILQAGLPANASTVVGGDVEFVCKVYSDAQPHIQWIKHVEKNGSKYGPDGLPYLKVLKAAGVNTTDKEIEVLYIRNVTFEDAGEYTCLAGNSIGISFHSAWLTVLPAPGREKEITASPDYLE

B1: N-terminal carbohydrate recognition domain of galectin-8 fused to the AviTag (domain or fragment, human, UniProt O00214 1-152, looked up)
chain: MMLSLNNLQNIIYNPVIPFVGTIPDQLDPGTLIVIRGHVPSDADRFQVDLQNGSSMKPRADVAFHFNPRFKRAGCIVCNTLINEKWGREEITYDTPFKREKSFEIVIMVLKDKFQVAVNGKHTLLYGHRIGPEKIDTLGIYGKVNIHSIGFS
notes: galectin-8, human, N-CRD, residues Met1-Ser152; also called gal-8N-CRD; gal-8_(N-CRD); source: E. coli BL21(DE3) pLysS, purified (Ni-NTA); not shown: AviTag, C-terminal, kept
In experiment [1], B1 registered a KD1 of 2.6 µM, a KD2 of 17 nM, a Koff1 of 0.164 s⁻¹ and a Koff2 of 0.000194 s⁻¹. In experiment [1], this molecule returned a Kon1 of 165000 M⁻¹ s⁻¹ and a Kon2 of 429000 M⁻¹ s⁻¹.

B2: galectin-8 (natural protein, human, UniProt O00214 1-317, looked up)
chain: MMLSLNNLQNIIYNPVIPFVGTIPDQLDPGTLIVIRGHVPSDADRFQVDLQNGSSMKPRADVAFHFNPRFKRAGCIVCNTLINEKWGREEITYDTPFKREKSFEIVIMVLKDKFQVAVNGKHTLLYGHRIGPEKIDTLGIYGKVNIHSIGFSFSSDLQSTQASSLELTEISRENVPKSGTPQLRLPFAARLNTPMGPGRTVVVKGEVNANAKSFNVDLLAGKSKDIALHLNPRLNIKAFVRNSFLQESWGEEERNITSFPFSPGMYFEMIIYCDVREFKVAVNGVHSLEYKHRFKELSSIDTLEINGDIHLLEVRSW
notes: galectin-8, human; the C-CRD construct ends at Trp317, which fits the form of 317 residues; also called gal-8; full-length galectin-8; source: E. coli BL21 CodonPlus(DE3)-RIL, purified (Ni-NTA); not shown: His tag, N-terminal, kept
Turning to B2, in experiment [2], the KD1 was determined as 24.3 nM, the KD2 was 249 nM, the Koff1 amounted to 0.000929 s⁻¹ and the Koff2 amounted to 0.0161 s⁻¹. In experiment [2], this molecule had a Kon1 of 38700 M⁻¹ s⁻¹ and a Kon2 of 65100 M⁻¹ s⁻¹. In experiment [3], this molecule had a KD1 of 174 nM, a KD2 of 63 nM, a Koff1 of 0.0289 s⁻¹ and a Koff2 of 0.000855 s⁻¹. For the same molecule, in experiment [3], the Kon1 amounted to 167000 M⁻¹ s⁻¹ and the Kon2 was found to be 14500 M⁻¹ s⁻¹. Moreover, in experiment [4], the KD1 was determined as 3.8 µM, the KD2 was 141 nM, the Koff1 worked out at 0.0312 s⁻¹ and the Koff2 was 0.00493 s⁻¹. In experiment [4], this molecule came in with a Kon1 of 13200 M⁻¹ s⁻¹ and a Kon2 of 35100 M⁻¹ s⁻¹. Also, in experiment [1], the KD1 turned out to be 0.95 µM, the KD2 came to 194 nM, the Koff1 was determined as 0.0225 s⁻¹ and the Koff2 was determined as 0.000766 s⁻¹. In experiment [1], this molecule yielded a Kon1 of 25200 M⁻¹ s⁻¹ and a Kon2 of 8820 M⁻¹ s⁻¹.

These data come from PMC10070233 (Cellular and Molecular Life Sciences: CMLS, 2023).
